# Laboratory results as given in patent US6821739B2, “Methods of diagnosing and treating Crohn's disease using Pseudomonas antigens” (The Regents of the University of California, priority 2000, dated 2004).
# Test system: CD4+ T cells from C57BL/6J mice
# Type: cell-based, mouse
# Settings: 72 hours
molecule,measurement,value
"PFTR: P. fluorescens polypeptide of 198 amino acids (SEQ ID NO: 5), similar to bacterial ferrodoxins (protein, P. fluorescens) MRTMVDSGQLTDPESARGKLLQTAAHLFRNKGFERTTVRDLASAVGIQSGSIFHHFKSKDEILRAVMEETTHYNTAMMRASLEEASTVRERVLALIRCKLQSIMGGSGEAMAVLVYEWRSLSAEGQAHVLALRDVYEQIWLQVLGEAKAAGYIRGDVFITRRFLTGALSWTTTWFRAQGSLTLEELAEEALLMVLKSD",stimulation of CD4+ T cell proliferation,strongly stimulated
